Reference: patent publication US20260226133A1 (ANGELES THERAPEUTICS, published 2026)

Biological target: T1, MSLN (UniProt Q13421 37-598, limits assumed)
T1 construct: whole, on cells; also called Mesothelin
Assay: Malibu-Glo assay; NLuc fusion supernatant on SKOV3 cells, control Jurkat cells

T1 sequence (Q13421 other isoform, or with tags, fused parts or gaps limits assumed): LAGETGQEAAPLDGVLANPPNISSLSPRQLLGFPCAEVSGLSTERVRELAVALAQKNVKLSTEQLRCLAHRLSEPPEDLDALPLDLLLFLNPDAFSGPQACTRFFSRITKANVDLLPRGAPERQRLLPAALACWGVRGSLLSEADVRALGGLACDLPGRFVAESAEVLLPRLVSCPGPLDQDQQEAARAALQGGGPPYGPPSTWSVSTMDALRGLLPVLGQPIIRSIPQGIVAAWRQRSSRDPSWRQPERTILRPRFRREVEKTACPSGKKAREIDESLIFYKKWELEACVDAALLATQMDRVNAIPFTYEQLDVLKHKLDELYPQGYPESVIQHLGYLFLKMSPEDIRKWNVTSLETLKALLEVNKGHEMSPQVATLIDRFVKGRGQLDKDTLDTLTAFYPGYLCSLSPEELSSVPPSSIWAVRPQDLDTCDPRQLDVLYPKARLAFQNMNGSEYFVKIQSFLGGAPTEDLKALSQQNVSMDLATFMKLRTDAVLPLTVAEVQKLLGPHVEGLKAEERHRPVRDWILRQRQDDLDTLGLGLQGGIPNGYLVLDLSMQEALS

B1: AT2-K65R vHH (MSLN), NLuc fusion (VHH)
VHH: QVQLVESGGGVVQPGGSLRLSCAASGLSFSTYTVAWFRQAPGKGLEGVAAIPYTSQHMVYTDSVRGRFTISRDNSKNTLYLQMNSLRAEDTAVYYCATDRRPGTSMLAINGYNRWGQGTTVTVSS
In the case of B1, the “Fold Change (Luc activity, target cell line over control cell line)” value is reported as 11.5 fold.
